This is an account of results in patent US20240270857A1 (CHIA TAI TIANQING PHARMACEUTICAL GROUP, published 2024).

The target in assay [1] is T1, IL-36R naturally expressed on OVCAR8 cells and on normal human epidermal keratinocytes (NHK cells) (human, UniProt Q9HB29 20-575).
T1 sequence (looked up): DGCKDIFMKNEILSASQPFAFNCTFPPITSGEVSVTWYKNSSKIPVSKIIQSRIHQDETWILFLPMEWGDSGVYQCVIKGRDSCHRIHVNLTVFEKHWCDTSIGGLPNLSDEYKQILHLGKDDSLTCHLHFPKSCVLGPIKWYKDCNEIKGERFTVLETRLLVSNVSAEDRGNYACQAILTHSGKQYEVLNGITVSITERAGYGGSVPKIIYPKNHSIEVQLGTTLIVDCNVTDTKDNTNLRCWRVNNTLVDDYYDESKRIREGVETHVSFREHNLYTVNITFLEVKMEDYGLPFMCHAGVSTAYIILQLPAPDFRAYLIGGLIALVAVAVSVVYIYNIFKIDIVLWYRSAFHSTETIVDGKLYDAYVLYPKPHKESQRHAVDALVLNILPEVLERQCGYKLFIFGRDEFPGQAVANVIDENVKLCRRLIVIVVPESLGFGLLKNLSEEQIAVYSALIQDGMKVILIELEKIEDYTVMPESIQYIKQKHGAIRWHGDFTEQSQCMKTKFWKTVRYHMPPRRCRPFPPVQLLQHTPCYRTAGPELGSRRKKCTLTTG
Briefly: cell-based or functional assay.

In assay [2] the target is T2, Human IL-1Rrp2/IL-1R6 protein, His Tag (ACROBiosystems, IL2-H52H6) (human, UniProt Q9HB29 20-335).
T2 construct: Bought protein; the soluble protein is likely only the extracellular part; also called hIL-36R; human IL36R antigen; not shown: His tag
T2 sequence: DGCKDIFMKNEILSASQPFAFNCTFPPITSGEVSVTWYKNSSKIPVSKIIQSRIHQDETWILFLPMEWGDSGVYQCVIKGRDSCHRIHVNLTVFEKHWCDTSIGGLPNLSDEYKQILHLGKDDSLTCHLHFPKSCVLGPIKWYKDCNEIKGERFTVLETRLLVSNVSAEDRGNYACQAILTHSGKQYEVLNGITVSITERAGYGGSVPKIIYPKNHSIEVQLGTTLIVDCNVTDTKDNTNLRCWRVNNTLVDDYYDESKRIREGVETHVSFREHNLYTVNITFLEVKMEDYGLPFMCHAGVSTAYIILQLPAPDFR
The assay can be described thus: ELISA, plate coated with human IL-1Rrp2/IL-1R6 His Tag, HRP-protein A/G, OD450. The procedure:
The binding activity of anti-IL-36R antibodies to IL-36R was analyzed by ELISA using human IL-1Rrp2/IL-1R6 protein, His Tag (ACROBiosystems, IL2-H52H6) and CynoIL36R-ECD mFc (for detection of chimeric and humanized antibodies), and hIL36R-ECD hFc and CynoIL36R-ECD hFc protein (for detection of hybridoma antibodies) as antigens. A 96-well plate (Costar, 9018) was coated with 2 μg/mL antigen at 100 μL/well and incubated overnight at 4° C. After the 96-well plate was washed with a washing buffer (PBS containing 0.05% v/v Tween 20), a blocking buffer (PBS containing 2% bovine serum albumin) was added for blocking at 37° C. for 2 h. After the 96-well plate was washed with the washing buffer, 100 μL of the gradient diluted anti-IL-36R antibody of the present disclosure or the reference antibody BI655130 (the initial concentration of the antibody was 66 nM, 4-fold gradient dilution) was added to each well, and the plate was incubated at room temperature for 1 h. After the 96-well plate was washed with the washing buffer, 100 μL of horseradish peroxidase-conjugated recombinant protein A/G (TheroScientific, 32490) was added to each well, and the plate was incubated at room temperature for 1 h. After the 96-well plate was washed with the washing buffer, 100 μL of a TMB solution (Thermo, 00-4201-56) was added to each well, and the plate was incubated at room temperature for 2 min. Finally, 100 μL of a stop solution (2 N H₂SO₄) was added to each well to stop the reaction. Absorbance was read at 450 nm using a microplate reader (PE, Envision), the resulting data was analyzed using GraphPad Prism, and EC₅₀ was calculated. Binding EC₅₀ of the chimeric anti-IL-36R antibodies to hIL-36R in an ELISA assay is shown in FIG. 1. and binding EC₅₀ of the chimeric anti-IL-36R antibodies to CynoIL-36R in an ELISA assay is shown in FIG. 2. The binding of BI655130 is shown as a control, and the binding of IgG4 is shown as a negative control.

Assay [3] concerns the target T2, Human IL-1Rrp2/IL-1R6 protein, His Tag …. Briefly: BLI (ForteBio Octet), antibody on ProA sensor, 1:1 model. The procedure: The affinity of anti-IL-36R antibodies to CynoIL36R-ECD mFc and human IL-1Rrp2/IL-IR6 protein, His Tag (ACROBiosystems, IL2-H52H6) was measured by a ForteBio molecular interaction instrument. […] And then the biosensor was used to bind CynoIL36R-ECD mFc or human IL-1Rrp2/IL-1R6 protein, His Tag which was diluted by a gradient (the initial concentration was 200 nM, 2-fold gradient dilution), the response signals were detected in real time using a Fortebio molecular interaction instrument (SARTORIUS, octet red 96e), and association and dissociation curves were obtained. After the completion of dissociation in each cycle, the biosensor was regenerated for the next capture; the procedure was repeated until the affinity of the different anti-IL-36R antibodies for IL-36R was determined. The resulting data were analyzed by Fortebio Data Analysis 11.0 software in a 1:1 (Langmuir) binding model to determine kₐ (kₒₙ) and kd (koff) values, and the dissociation constant KD was calculated by KD=kd/kₐ. The detection method essentially followed the manufacturer's recommendations, and more information could be found at www.fortebio.com.
Affinity, binding and blocking assays for humanized antibodies hz72C1-1.1, hz72C1-1.2, hz72C1-1.3, hz72C1-2.1, hz72C1-2.2 and hz72C1-2.3 as well as hz84C4-1.1, hz84C4-1.2, hz84C4-1.3, hz84C4-1.4, hz84C4-1.5, hz84C4-2.1, hz84C4-2.2, hz84C4-2.3, hz84C4-2.4 and hz84C4-2.5 were performed according to the methods of Example 4, Example 5. Example 6, Example 7 and Example 8.

Substitutions are numbered along the chain they refer to.

B1: BI655130 (antibody, human IgG1, kappa, L234A L235A)
heavy: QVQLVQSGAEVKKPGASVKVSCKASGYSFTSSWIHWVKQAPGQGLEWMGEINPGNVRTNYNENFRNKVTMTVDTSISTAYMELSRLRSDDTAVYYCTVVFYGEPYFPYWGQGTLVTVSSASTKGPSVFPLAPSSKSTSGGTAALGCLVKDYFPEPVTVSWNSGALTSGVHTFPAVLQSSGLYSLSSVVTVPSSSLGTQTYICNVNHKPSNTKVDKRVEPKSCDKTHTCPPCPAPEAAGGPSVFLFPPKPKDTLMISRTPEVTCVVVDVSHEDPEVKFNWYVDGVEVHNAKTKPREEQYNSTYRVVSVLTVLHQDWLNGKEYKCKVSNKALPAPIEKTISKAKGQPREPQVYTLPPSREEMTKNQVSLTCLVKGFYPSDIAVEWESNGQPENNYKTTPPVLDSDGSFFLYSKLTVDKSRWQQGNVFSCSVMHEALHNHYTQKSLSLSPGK
light: QIVLTQSPGTLSLSPGERATMTCTASSSVSSSYFHWYQQKPGQAPRLWIYRTSRLASGVPDRFSGSGSGTDFTLTISRLEPEDAATYYCHQFHRSPLTFGAGTKLEIKRTVAAPSVFIFPPSDEQLKSGTASVVCLLNNFYPREAKVQWKVDNALQSGNSQESVTEQDSKDSTYSLSSTLTLSKADYEKHKVYACEVTHQGLSSPVTKSFNRGEC
notes: also called Spesolimab
On to B1, for which, in assay [1], the “IC50 (M); hIL36α; IL-8 production” value came out at 1.26e-10 M, the “IC50 (M); hIL36αβγ; IL-8 production” value worked out at 1.98e-10 M, the “IC50 (M); hIL36β; IL-8 production” value was found to be 3.03e-10 M and the “IC50 (M); hIL36γ; IL-8 production” value worked out at 4.42e-11 M. Besides, in assay [1], the “Maximum inhibition rate %; hIL36α; IL-8 production” value was 106%, the “Maximum inhibition rate %; hIL36αβγ; IL-8 production” value turned out to be 98.9%, the “Maximum inhibition rate %; hIL36β; IL-8 production” value worked out at 101% and the “Maximum inhibition rate %; hIL36γ; IL-8 production” value was 105%. Moreover, the midpoint of the response in assay [2], the EC50, lay at 0.348 nM. In addition, in assay [3], binding was put at a Kd of 0.245 nM; the koff (in general, the rate constant with which the complex falls apart) is 1.57e-05 s⁻¹; the kon (in general, the second-order rate constant of association) came out at 64100 M⁻¹ s⁻¹.

B2: hz84C4-1.1 (antibody, human IgG4 S228P, kappa, V domains shown)
VH: QVQLVQSGAEVKKPGASVKVSCKASGYFFTSYWMNWVRQAPGQGLEWMGMIHPYDSETRYAQKFQGRVTMTVDKSTSTVYMELSSLRSEDTAVYYCASSTTAFAYWGQGTLVTVSS
VL: DIQMTQSPSSLSASVGDRVTITCRASQDIGNALNWYQQKPGKAPKRLIYATSSLDPGVPSRFSGSRSGTDFTLTISSLQPEDFATYYCLQYASSPYTFGQGTKVEIKR
notes: Humanized, human IgG4 / kappa
Consider B2, for which, in assay [2], a half-maximal effect (EC50) was put at 0.509 nM.

B3: hz84C4-1.3 (antibody, human IgG4 S228P, kappa, V domains shown)
VH: B2 VH with H52Y
VL: B2 VL
notes: Humanized, human IgG4 / kappa
With B3, a half-maximal response in assay [2] (EC50) required 3.41 nM.

B4: hz84C4-1.5 (antibody, human IgG4 S228P, kappa, V domains shown)
VH: B2 VH with A24V, R38N, Y60L, Q65K
VL: B2 VL
notes: Humanized, human IgG4 / kappa
As for B4, the EC50 – broadly, the concentration giving half of the maximal effect – in assay [2] was determined as 0.624 nM.

B5: hz84C4-1.2 (antibody, human IgG4 S228P, kappa, V domains shown)
VH: B2 VH with M50Y
VL: B2 VL
notes: Humanized, human IgG4 / kappa
As for B5, the response in assay [2] was half-maximal at 0.531 nM (EC50).

B6: hz84C4-2.5 (antibody, human IgG4 S228P, kappa, V domains shown)
VH: B2 VH with A24V, R38N, Y60L, Q65K
VL: B2 VL with Y36L, F71Y
notes: Humanized, human IgG4 / kappa
Molecule B6 had an EC50 in assay [2] of 0.497 nM.

B7: hz84C4-2.2 (antibody, human IgG4 S228P, kappa, V domains shown)
VH: B2 VH with M50Y
VL: B2 VL with Y36L, F71Y
notes: Humanized, human IgG4 / kappa
Turning to B7, a half-maximal effect in assay [2] (EC50) was put at 0.533 nM.

B8: hz84C4-2.4 (antibody, human IgG4 S228P, kappa, V domains shown)
VH: B2 VH with F28Y, Y60L, Q65K
VL: B2 VL with Y36L, F71Y
notes: Humanized, human IgG4 / kappa
Turning to B8, the response in assay [2] was half-maximal at 0.453 nM (EC50).

B9: hz84C4-2.1 (antibody, human IgG4 S228P, kappa, V domains shown)
VH: B2 VH
VL: B2 VL with Y36L, F71Y
notes: Humanized, human IgG4 / kappa
The molecule B9 displayed a 50% effective concentration (EC50) in assay [2] of 0.558 nM.

B10: hz84C4-1.4 (antibody, human IgG4 S228P, kappa, V domains shown)
VH: B2 VH with F28Y, Y60L, Q65K
VL: B2 VL
notes: Humanized, human IgG4 / kappa
For B10, a half-maximal effect in assay [2] (EC50) was put at 0.684 nM.

B11: hz84C4-2.3 (antibody, human IgG4 S228P, kappa, V domains shown)
VH: B2 VH with H52Y
VL: B2 VL with Y36L, F71Y
notes: Humanized, human IgG4 / kappa
In turn, B11 displayed an EC50 in assay [2] of 2.25 nM.
